In data set [1] the target is FLAG–Phd1-73 (PhdSTm antitoxin, His6 removed by thrombin) (Salmonella typhimurium). Kind of data set: SEC; HiLoad 16/600 Superdex 75pg, 4 C, Phd SEC buffer (0.025 M K2HPO4, 0.15 M NaCl, 5% glycerol, pH 8.0); mass from the manufacturer's calibration curves; last purification step.
In data set [2] the target is Doc1-122–His6 (DocSTm toxin) (Salmonella typhimurium). Kind of data set: SPR; Biacore S200; Doc-His6 captured on NTA chip; Phd1-73 protein as analyte, multi-cycle kinetics, eight concentrations 25 nM to 0.390625 nM, association 200 s, dissociation 1500 s; 22 C; 10 mM HEPES, 500 mM NaCl, 50 uM EDTA, 0.005% TWEEN 20, pH 8.0; kinetic 1:1 fit with constant RMAX. Background: In SPR one partner is held on a chip, and binding of the other changes the refractive index at the surface.

The target is the same in data set [3]. The data set is described as above. This is another data set of the same source.
For data set [4], the system named is Doc (E. coli P1 Phage). The note with it: ref 5 (ESI), read-out: Kd (nM) ITC; cited from earlier work. An excerpt: page 23: Table S5. […] Organism Complex Kd (nM) SPR Kd (nM) ITC Reference S. Typhimurium Doc-Phd1-73 0.061 ± 0.019 - This study S. Typhimurium Doc-Phd52-73 (peptide 1) 0.073 ± 0.018 - This study E. coli P1 Phage Doc-Phd1-73 350 - 5 E. coli P1 Phage DocH66Y-Phd1-73 1300 - 5 E. coli P1 Phage Doc-Phd51-73 - 240 5 E. coli P1 Phage DocH66Y-Phd52-73 - 1 6 S23

In data set [5] the target is Doc1-122–His6 (DocSTm toxin) (Salmonella typhimurium). In words: SPR; Biacore S200; Doc-His6 captured on a Series S NTA chip (200-400 RU); peptide as analyte, single-cycle kinetics, six concentrations (3-fold dilutions), 30 uL/min; 22 C; 10 mM HEPES, 500 mM NaCl, 50 uM EDTA, 0.005% TWEEN 20, pH 8.0; kinetic 1:1 fit.
The target is the same in data set [6]. The description is as above. The source holds these as a separate data set.
Data set [7] has the same target. The data set is described as above. This is another data set of the same source.
The target is the same in data set [8]. The data set is described as above. This is another data set of the same source.
Data set [9] concerns the target T1, Doc toxin of Salmonella enterica serovar Typhimurium (DocSTm) (Salmonella enterica serovar Typhimurium, UniProt A0A1C9CWN5 1-126). In words: differential scanning fluorimetry; DocSTm 5 μM with SYPRO Orange, 25 to 95 °C; 50 μM PhdSTm or peptide 1 (Figure 2a); 20 mM K2HPO4, 50 mM (NH4)2SO4, pH 8.0; shift of the melting temperature of DocSTm. As to conditions: both partners purified. On the technique in general: Differential scanning fluorimetry follows unfolding on heating by fluorescence.

For data set [10], the target named is T1, Doc toxin of Salmonella enterica …. Kind of data set: SPR; DocSTm immobilised on a Series S NTA chip; analytes in multicycle kinetics, kinetic and/or steady-state 1:1 fit (steady-state for peptide 14); 22 °C; 10 mM HEPES, 500 mM NaCl, 50 μM EDTA, 0.005% TWEEN 20, pH 8.0. As to conditions: both partners purified.

Where “and” joins values, the source holds several entries; their conditions need not be identical. Equal entries are not always repeated.

For orientation: stoichiometry N means a count of units in the complex or per binding partner. In general, koff refers to the rate constant with which the complex falls apart. A high value points to a short-lived complex. Broadly, the kon is a measure of how fast the partners come together. Higher therefore signals faster complex formation. As a reminder, the Kd is the equilibrium constant for the complex coming apart. In [1], “FLAG–Phd1-73 (PhdSTm antitoxin, His6 removed by thrombin) (natural protein)” gave a stoichiometry N of 2. Further, in data set [2], the off-rate (koff) came to 2.9e-05 s⁻¹ and the association rate constant (kon) was 473000 M⁻¹ s⁻¹. Further, in data set [3], the dissociation constant (Kd) was 0.0507 nM and 0.0505 nM and 0.0883 nM; the koff was 3.02e-05 s⁻¹ and 2.2e-05 s⁻¹ and 3.42e-05 s⁻¹; the on-rate constant (kon) is 596000 M⁻¹ s⁻¹ and 436000 M⁻¹ s⁻¹ and 387000 M⁻¹ s⁻¹.
Turning to “Phd51-73 (E. coli P1 Phage): Phd residues 51-73 of E. coli P1 phage, literature value (ALDAEFASLFDTLDSTNKELVNR; UniProt Q06253 51-73, looked up, fragment)”, the dissociation constant (Kd) in data set [4] was 240 nM.
Turning to peptide 1 (PhdSTm52-73), in [5], the koff is 9.1e-05 s⁻¹ and the on-rate constant (kon) was 1.25e+06 M⁻¹ s⁻¹. Also, the kon in data set [6] is 1.1e+06 1/(M s) (2×) and 1.6e+06 1/(M s) and 1.3e+06 1/(M s).
In [5], peptide 12 (PhdSTm52-73-N65A) showed a dissociation constant Kd of 0.145 nM, an off-rate (koff) of 0.000203 s⁻¹ and a kon of 1.4e+06 M⁻¹ s⁻¹. Further, in data set [7], the on-rate constant (kon) is 1.3e+06 1/(M s) (2×) and 1.6e+06 1/(M s) and 1.4e+06 1/(M s).
In data set [5], peptide 19 (PhdSTm52-73-K73A) registered a Kd of 0.087 nM, a koff of 0.000126 s⁻¹ and an association rate constant (kon) of 1.44e+06 M⁻¹ s⁻¹. Moreover, the association rate constant (kon) in data set [8] was 1.08e+06 M⁻¹ s⁻¹ and 2.12e+06 M⁻¹ s⁻¹ and 1.28e+06 M⁻¹ s⁻¹.

B1: Phd antitoxin of Salmonella enterica serovar Typhimurium, full-length (PhdSTm) (natural protein)
chain: MFMRTVNYSEARQNLAEVLESAVTGGPVTITRRGHKSAVIISAEEFERYQTARMDDEFAAIMAVHGNELRELADK
notes: also called PhdSTm 1-73; full-length Phd antitoxin
Take B1: the “ΔTm of DocSTm (DSF)” value in [9] is 31.3 ± 0.9 °C. Further, the “half-life of the complex” value in data set [10] is about 7 h.

The values above are taken from PMC9207808 (ACS Chemical Biology, 2022).
